Patent US20040198648A1

Target: human insulin receptor (IR), overexpressed in rat fibroblasts (HIRc B cells) (human) (UniProt P06213)
Assay: cell-based or functional assay

insulin-induced IR autophosphorylation in intact HIRc B cells, rhAHSG at 1.8 µM: > 50%
Substance: recombinant human AHSG (α2-Heremans Schmid Glycoprotein) (from UniProt P02765 19-367)
